From patent publication US20240109958A1 (Genentech, published 2024)
Residue numbers refer to the chain shown, from its start. Groups on a side chain read outwards from the residue. No end group written: not given here.

Molecular target: T1, biotinylated K-ε-GG peptide (AAA{K-ε-GG}AAA) (also: biotinylated, position not given here)
T1 construct: also called branched diglycine peptide
T1 peptide: AAAK([Gly-Gly])AAA
Experiment: ELISA, biotinylated peptide on neutravidin plates
Description: Biotinylated peptides (GGM and K-ε-GG) were coated at 1 μg/mL in PBS on neutravidin ELISA plates (Thermo Scientific) in triplicate overnight at 4° C. Plates were washed with PBST prior to use. Serial dilutions of GGX mAbs or K-ε-GG mAb (Cell Signaling Technology) at 1 μg/mL were added for 1-2 hours at 25° C. Plates were washed and further developed as described above (see FIG. 1E).

B1: anti-GGX monoclonal antibody 1C7 (rabbit IgG) (antibody, V domains shown)
VH: QSVKESGGRLVTPGTPLTLTCKVSGFSLSSYYMNWVRQAPGKGLEWIGIMFPNGKIYYATWAKGRFTISKTSTTVDLKIISPTTEDTATYFCTGDDSGDVNIWGPGTLVTVSS
VL: DIVLTQTASPVSAAVGGTVTINCQSSQSVYTNNRLAWYQQKPGQPAKEMIYGASTLPSGVSSRFKGSGSGTQFALTISDVQCDDAATYYCLGTYDCLSADCLAFGGGTKLEIKG
notes: also called anti-GGX antibody 1C7; anti-GGX mAb
  binding result: no binding (tested: 1 µg/mL)

B2: anti-GGX monoclonal antibody 2E9 (rabbit IgG) (antibody, V domains shown)
VH: QKQLMESGGRLVTPGTPLTLTCKVSGFSLSSYYMNWVRQAPGKGLEWIGIMFPNGKIYYATWAKGRFTISKTSTTVDLKIISPTTEDTATYFCTGDDSGDVNIWGPGTLVTVSS
VL: B1 VL with T93E, Y94F, L97T, L102F, A103V, K109E, L110V, E111V, I112V
notes: also called anti-GGX antibody 2E9; anti-GGX 2E9 antibody
  binding result: no binding (tested: 1 µg/mL)

B3: anti-GGX monoclonal antibody 2H2 (rabbit IgG) (antibody, V domains shown)
VH: B1 VH with K4E, G7R
VL: B1 VL with I2P, V3M, T31S, A46P, A74T, K109E, L110V, E111V, I112V
notes: also called anti-GGX antibody 2H2; anti-GGX 2H2 antibody
  binding result: no binding (tested: 1 µg/mL)

B4: anti-GGX monoclonal antibody 2B12 (rabbit IgG) (antibody, V domains shown)
VH: QSVEESGGGLVTPGGALTLTCTASGFSLNRHWMNWVRQAPGKGLEWIGAINESGRTYYATWAKGRFFISKTTTTVDLKITSPTTADTATYFCVRDDDVSNFWGPGTLVTVSS
VL: DPMLTQTPSSVSAAVGGTVSINCQSTKSVYKYNHLSWYQQKPGQPPKQLIFPASTLQSGVPSRFSGSGSGTQFTLTISDVQCDDAATYYCLGLYDCRSGDCNVFGGGTKLEIKG
notes: also called anti-GGX antibody 2B12
  binding result: no binding (tested: 1 µg/mL)
